The record followed here is the nanobody polyreactivity screen of Harvey et al. (2022).

The series is described as follows: yeast display, Sf9 membrane polyspecificity reagent, FACS + sequencing; frameworks hold sequencing errors. Put shortly:
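Nanobodies from a synthetic yeast display library (Saccharomyces cerevisiae BJ5465), induced 36–48 hours with galactose, were stained 1 hour at 4 °C with 10% biotinylated, detergent-solubilized Sf9 membrane reagent, enriched on streptavidin microbeads, then FACS-sorted. Anti-HA (expression) and streptavidin (reagent binding) fluorescence set low and high (top ~1%) gates. Polyreactivity labels come from the gate of origin. Genes were colony-PCR amplified, MiSeq 2 × 250 sequenced and filtered by CDR length.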
For “QVQLVESGGGLVQAGGSLRLSSAASGSIFYPYAMGWYRQAPGKARELVSTISWRGGSTYYADSVKGRFTISRDNAKNTDYVQMNRLKPEVTAVYYCAARKRPYSVINGMDYWGQGTQVTVSS”, the “polyreactivity (PSR sort gate)” value is on record as “low polyreactivity”.

On to “QVQLVESGGGLVQAGGSLRLSCAASGSTFPVYAMGWYRQEPGKERELVAAITSGVSTNYADSVKGRFTISRDNAKNTVYLQMNSLKPEDTAVYYCAKDFGLLPIRDDYWGQGTQVTVSS”, for which the “polyreactivity (PSR sort gate)” value is “low polyreactivity”.

“QVQLVESGGGLVQAGGSLRLSCAASGRIIFAYTMGWYRQAPGKERELVAAISSSGSTYYADSVKGRFTISRDNAKNTVYLQMNSLKPEDTAVYYLRVQRRAYRYDYWGQGTQVTVTS”: the “polyreactivity (PSR sort gate)” value is recorded as “high polyreactivity”.

With “LVQLQESGGGLVQACGSLRLSCAASGDIFDADIMGWYRQAPGKERELVASITDGGSTNYADSVKGRFTISRDNAKNTVYLPMNSLKPEDTAVYYCAKPATYYELDYWGQGTQVTVSS”, the “polyreactivity (PSR sort gate)” value is “low polyreactivity”.

Take “QVQLVESGGGLDQAGGSLRLSCAASGSIFWYNTMGWYRQAPGKERELVAAITFSGGSTYYADSVKGRFTISRDNAKNTVYLQMNSLKPEDTAVYYCAAVFYSAVGYFYWGQGTQVTVSS”: the “polyreactivity (PSR sort gate)” value is listed as “low polyreactivity”.

On to “QVQLQESGGGLVQAGGSLRLSCAASSNNTTLDVMCWYRQAPGKEREFVASIGSGGITNYADSVKGRFTISRDNAKNTVYLQMNSLKPEDTAVYYCAVLNQAYTDLIYWGQGTQVTVSS”, for which the “polyreactivity (PSR sort gate)” value is reported as “high polyreactivity”.

As for “QVQLVESGGGLVQAGGSLRLSCAASGRIFRDYAMGWYRQAPGKERELVAAITGSGGRTYYADSVKGRFTISRDTAKNTVYLQMNSLKPEDTAVYYCAAYLGRRGQEMDYWGQGTQVTVSS”, the “polyreactivity (PSR sort gate)” value was “high polyreactivity”.

In the case of “KVQLVESGGGLVQAGGSLRFSCAPSGSIFSGNTMGWYRQAPGKEREMVAAITRSGDTTYYADSVKGRFTISRDYAKNTVYLQMNSLKPEDTAFYYCAAALPRYRSRAIRVEFWGQGSQVTVSS”, the “polyreactivity (PSR sort gate)” value is “high polyreactivity”.

Consider “QVQLVESGGGLVQAGGSLRLRCAASGSTFWSYAMGWYRQAPGKERELVATITRAGTTNYADSVKGPFTISRDNAKNTVYLQMNSLKPEDTAVYYCAKRKFRWPYQGSYSYIPFGYWGQGTQVTVSS”, for which the “polyreactivity (PSR sort gate)” value is recorded as “high polyreactivity”.

On to “QVQLVESVGGLVQAGGSLRLSCAASGFIFSYYAMGGYRQAPGKERELVAAISKTGGNTYYADSVKGRFTISRDNAKNTVYLQMNSLKPEDSAVYYCNALRGDWRDMGYWGQGTQVTVSS”, for which the “polyreactivity (PSR sort gate)” value is on record as “high polyreactivity”.

For the sequence “QVQLEESGGGIVQAGGSLRLSCAASGSIIILYAMGWSRQAPGKEREFVAAITWSGGSTYYADSVKGRFTISRDNAKNTVYLQMNSLKPEDTAVYYCAARIRTVAHVDYDYWGQGTQVTVSS”, the “polyreactivity (PSR sort gate)” value was “high polyreactivity”.

On to “QVQLVESGGGLVQAGGSLSLSCAASGFIITRNAMGWYRQAPGKEWEFVARISRSSGSTYYADSVKGRFTISRDNAKITVYLKMKSLTPDDTAVYYCNTRVAGIYGFGSYDDWGQGTQVTVSS”, for which the “polyreactivity (PSR sort gate)” value is reported as “high polyreactivity”.

Turning to “QVQLVESGGGLVQAGGSLRLSCAASGRIFRYKAMGGYRQAPGKEREFVAAISSSGGSTFYADSVKGRFTISRDNAKNTVYLQMNSLIPEDTAAYYCAADDAGFWYYYYGRYVTFDYWGQGTQVTVSS”, the “polyreactivity (PSR sort gate)” value is on record as “low polyreactivity”.

On to “QVQLVESGGGLDLAGGSLRLSCAASGSTFWRYAMGWYCQAPGKERELVAAISYTGTSTYSADSVKGRFTISRDNAKNTVYLQMNSLKPEDTAVYYCAAVFVGLVTGYDYSWGQGTQVNVSS”, for which the “polyreactivity (PSR sort gate)” value is on record as “low polyreactivity”.

Take “QVQLVESGGGLVQAGGSLRLSCAASGLIFSSYAMGWYRQAPGKERELVAAITGSGGRTYYADSVKGRFTISRDNAKNTVYLQMNSLKPEDTAVYYCAAKYPDPRYYTGYDYWGQGTQVTVSS”: the “polyreactivity (PSR sort gate)” value is “high polyreactivity”.

Take “QVQLVESGGGLVQAGGSLRLSFAASGSTLGQNAMGWYRQARGKERELVAASSSGGRTYYADSVKGRFTISRDNAKNTVYLQMNSLNPEDTAVYYCNAVAYSLSGYNSWGQGTQVTVSS”: the “polyreactivity (PSR sort gate)” value is “high polyreactivity”.

With “QVQLVQSWGGLVQAGGSLRLICAASGSIIAYNAMGWYRQAPGKEREMVAAITISGGSTYYADSVKGRFTISRDNAKNNVYLQMNSLKPEDTAVYYSAAAIPGARSRRSYGKYFYWGQGTQVTVSS”, the “polyreactivity (PSR sort gate)” value is “low polyreactivity”.

Regarding “QVQLVESGGGLVQAGGSLRLSCAASGRTSGRYALGWYRQAPGKERELVAAITSSGGSTYYADSVKGRFTISRDTAKNTVYLQMNSLKPEDTAVYYCAAYFRGTGLDRSYKYDYWGQGTQVTVSS”, the “polyreactivity (PSR sort gate)” value is given as “high polyreactivity”.

For the sequence “QVQLVESGGGLVQAGGSLRLSCAASGITFGDNTMGWYRQAPGKERELVAAITYSSTSTYYADSVKGRFTISRDNAKNTVYLQMNSLKPEDTAVYYCAAEGPGDVVSTDYDYWGQGTQVTVSS”, the “polyreactivity (PSR sort gate)” value is reported as “low polyreactivity”.

Consider “QVQLVESGVGLVQAGGSLRLRCAASGSTFIVYALRWSRQAPGKERELVAAISWNGGRTYYADSVKGRFTISRDNAKKTVYLQMNSLKPEDTAVYYCPATLYNTEDDYWGQGTQVTLSS”, for which the “polyreactivity (PSR sort gate)” value is reported as “low polyreactivity”.

Regarding “QVQLVESAGGLVQAGGSLRLSCAASGSIFTTYTIVWYRQAPGKERELVAAITSSSGSTYYADSVKGRFTISRDNAKNTVYLQMNSLKPEDTAVYYCNATYSAAVDYWGQGTQVTVSS”, the “polyreactivity (PSR sort gate)” value is reported as “low polyreactivity”.

For the sequence “QDQLVESGGGLVQAGGSLRLSCAASGSIFGRYAMGWYRQAPGKERELVANITSGDSTNYADSVKGRFTISRDNAKNTVYLQMNSLKPEDTAVYYCAADTIYFYYYRHWYSKYYYWGQGTQVTVSS”, the “polyreactivity (PSR sort gate)” value is on record as “high polyreactivity”.

On to “QVQLVESGGGLVQAGGSLRLSCAASGRTFHYNAMGWYRQAPGKERELVAAISFNGGGTYYADSVKGRFTISRDNAKNTVYLQMNSLKPEDTAVYYCATDVPSRYDYWGQGTQVTVSS”, for which the “polyreactivity (PSR sort gate)” value was “low polyreactivity”.

Regarding “QVQLVESVGGLDQAGGSLRLSGAASGSIFAHYAMGWYRQAPGKETELVARISWSGGSTYYADSVKGRFTISRDNAKNTVYLQMNSLKPEDTAVYYCARAGRSWDTLYKYYLEHDYWGQGTQETVSS”, the “polyreactivity (PSR sort gate)” value is “low polyreactivity”.

Turning to “KVQLVESGGGLVQAGGSLRLSCAASGSTFSLYTLGGYRQAPGTERELVAAITNGGSTKYADSVKGRFTISRDNAKNTDYFQMNSLKPEDTAVYYCAALYSHYYWIEYDYWGQGTQVTVST”, the “polyreactivity (PSR sort gate)” value is reported as “low polyreactivity”.

Take “QVQLVESGGVLVQARGILRLICAASGSTFSFNDMGWYRQAPGKERELVAAISRGDNTYYADSVKGRFTISRDNAKNTVYLQMNSLKPDDTSVYYCAADYTYGPPYGYNYWGQGTQVTVSS”: the “polyreactivity (PSR sort gate)” value was “low polyreactivity”.

“QVQLVESGGGLVQAGGSLRLSCAASGFTVVSYAMGWYRQAPGKERELVAAITYSGTSTYYADSVKGRFTISRDKAKNTVYLQMNSLKPEDTAVYYCNADSSWVPIWYEYDYWGHGTQVTVSS”: the “polyreactivity (PSR sort gate)” value is “low polyreactivity”.

Take “QVQLVESVGGLVQAGGSLRLSCPASGFIFSGHTMGWYRQAPGKERELVAAITSGGGRTYYADSVKGRFTISRDNAKNTVYLQMNSLKPEDTAVYYCNTAFVYEYDYWGQGTQVTVSS”: the “polyreactivity (PSR sort gate)” value is “high polyreactivity”.

As for “QVQLVESGGGLVQAGGSLRFSCAASGSIFGSYAMGWYRQAPGKERELVAAITRGGGTTYYADSVKGRFTISRDNAKNTVYLQMNSLKPEDTAVYYCAAKWYHPYGPVYYWGQGTQVTVSS”, the “polyreactivity (PSR sort gate)” value is “high polyreactivity”.

On to “QVQLVESGGGLVQAGGSLRLSCAASGSIFRGNAIGWYRQAPGKDRELVAAISWNGVSTYYADSVKGRFTISRDNAKHTVYLQMNSLKPEDTAVYYCPTVGLRRLFVKPGTLKDYWGQGTQVTVSS”, for which the “polyreactivity (PSR sort gate)” value is on record as “low polyreactivity”.

Consider “QVQLVESGGGLVQAGGSLRLSCAASGRIFGWYAMGWYRQAPGKERELVAAISRSGGSTYYADSVKGRFTISRDNAKNTVYLQMNSLKPEDTAVCYCAAAFSLGMYWGQGTQVTVSS”, for which the “polyreactivity (PSR sort gate)” value was “high polyreactivity”.

Consider “QVQLVESGGGLVQAGGSLRLSCAASGRTFGRYAMGWYRQAPWKERELVAVINGGGSTYYADSVKGRFTISRDNAKNTVYLQMNSLKPEDTAVDYCAVGGYTRTGGWFDYWGQGTQVTVSS”, for which the “polyreactivity (PSR sort gate)” value is listed as “high polyreactivity”.

With “QVQLVESCGGLVQAGGSLRLSCAPSGRTIVYKAMGWYRQAPGKERELVAAISWSGGSPYYADSVKGRFTISRDNAKNTVNLQMNSLKPDDSAVYYCATSSYYYTIWMYYWGQGTQVTVSS”, the “polyreactivity (PSR sort gate)” value is “high polyreactivity”.

As to “QVQLVESGGGLVQAGGSLRLSCAVSGRIFRRNVMGWYRQAPGKERELVAGSSYSGDSTYYADSVKGRFTISRDNAKNTVYLQMNRLKPEDTAVYYCAAALAHYRGMYYWGQGTQVTVSS”, the “polyreactivity (PSR sort gate)” value is “high polyreactivity”.

Consider “QVQLVESGGGLVQAGGSLRLSCAASGYILIYNAMGWYRQAPGTERELVAAINYRGDRTYYADSVKGRFTISRDNAKNTVYLQMNSLKPEDTAVYYCAKDYPYYGRYYRYPYDSWGQGTQVTVSS”, for which the “polyreactivity (PSR sort gate)” value is given as “high polyreactivity”.

As for “QVKLVESGGGLVQAGGSLRLSCAASGRTFPYYAKGWYRQAPGKERELVAAISWSGGSTYYADSVKGRFTISRDNAKNTVYLQMNSLKPEDTAVYYCNTVFSPWPDFRRFGYWGQGTQVTVSS”, the “polyreactivity (PSR sort gate)” value is recorded as “high polyreactivity”.

In the case of “QVQLVESGGGLVQAGGSLRLSCAASGSIYVNTMGWYRQAPGKEREFVAAITRRGGSTYYADSVKGRFTISRDNAKNTVYLQMNSLKPEDTAVYYCNADNRYSAHDYWGQGTQVTVSS”, the “polyreactivity (PSR sort gate)” value was “high polyreactivity”.

For “QVQLVESGGGLVQAGGSLRLSCAASGGIFKVYGMRWYRQAPGKERELVAAISWTTGGTYYADSVKGRFTISRDNAKITVYLQMNSLKQEDTAVYYCAAEYADSWSAFDWNYYYWGQGTQVTVSS”, the “polyreactivity (PSR sort gate)” value is “high polyreactivity”.

Regarding “QVQLVESGGGLVQAGGSLRLSCAASGSIFASNTMGWYRQAPGKERELVAGITKIGSSTYYADSVKGRFTISRDNAKNTVYLQMNSLKPEDTAVYYGNADYYFSWGSIEDYWGQGTQVSVSS”, the “polyreactivity (PSR sort gate)” value is listed as “low polyreactivity”.

Turning to “QVQLVESGGGLVQAGGSLRLSCAASGFTFGRYAMGWYRQAPGKERELLAGITWSGGSTSYADSVKGRFTISRDNAKNTVYFQMNSLKPEDTAVYYCATRARYTRVQGRRYAYDYWGQGTQVTVSS”, the “polyreactivity (PSR sort gate)” value is reported as “high polyreactivity”.

On to “QVHLEESGGGLVQAGGSLRLTCAASGFTFQLYAMGWYRQPPGKERELVAAINYRGSSTYYADSVKGRFTISRDNAKNTVYLQMNSLKPEDTAVYYCNAAQYYERFNHWGQGTQVTVSS”, for which the “polyreactivity (PSR sort gate)” value is “high polyreactivity”.
